Substrate: Nc1nc2nc[nH]c2c(=O)[nH]1
Test: purified protein, by the assay type
Assay type: biochemical, E. coli
Settings: other: wild-type, guanine as substrate, 20 μM tRNA, 37 °C, pH 7.3

B1: E. coli TGT Wild-Type (Escherichia coli K-12) (protein)
chain: MKFELDTTDGRARRGRLVFDRGVVETPCFMPVGTYGTVKGMTPEEVEATGAQIILGNTFHLWLRPGQEIMKLHGDLHDFMQWKGPILTDSGGFQVFSLGDIRKITEQGVHFRNPINGDPIFLDPEKSMEIQYDLGSDIVMIFDECTPYPADWDYAKRSMEMSLRWAKRSRERFDSLGNKNALFGIIQGSVYEDLRDISVKGLVDIGFDGYAVGGLAVGEPKADMHRILEHVCPQIPADKPRYLMGVGKPEDLVEGVRRGIDMFDCVMPTRNARNGHLFVTDGVVKIRNAKYKSDTGPLDPECDCYTCRNYSRAYLHHLDRCNEILGARLNTIHNLRYYQRLMAGLRKAIEEGKLESFVTDFYQRQGREVPPLNVD
  Km: 0.35 (0.03) μM
  kcat: 0.00629 s⁻¹
